Source: patent US20230272055A1 (Incyte, published 2023)
Residue numbers refer to the chain shown, from its start.

Legend:
MBP protein = MBP protein (UniProt P0AEX9 27-392 = MBP); experiment: SPR (Biacore 8K), antibody captured on anti-human IgG (Fc), MBP injected
Method: Experiment 1: Recombinant MBP-mutCALR Type 1 fusion protein was custom made at Cepter (cepterbiopartners.com). Data for the interaction of antibodies with recombinant MBP-mutCALR Type 1 fusion protein were collected at 25° C. on a Biacore 8K instrument (Cytiva, Marlborough, Mass.), and all reagents were obtained from Cytiva unless otherwise specified. The experiments were conducted using Tris-buffered saline (pH 7.2), 0.005% Surfactant P20, 1 mM CaCl₂) as running buffer. To prepare the capture surfaces, anti-human IgG (Fc) antibodies (Product #29234600) was amine-coupled onto a CM4 chip (Product #BR100534) under standard conditions using an Amine Coupling Kit (Product #BR100050). […] The kinetics parameters were obtained by applying 1:1 binding model to fit the data from multiple-cycle injection experiments using Biacore Insight Evaluation software.

Human Type 1 mutCALR = biological target: T1, Human Type 1 mutCALR (human); experiment: cell-based or functional assay
T1 chain: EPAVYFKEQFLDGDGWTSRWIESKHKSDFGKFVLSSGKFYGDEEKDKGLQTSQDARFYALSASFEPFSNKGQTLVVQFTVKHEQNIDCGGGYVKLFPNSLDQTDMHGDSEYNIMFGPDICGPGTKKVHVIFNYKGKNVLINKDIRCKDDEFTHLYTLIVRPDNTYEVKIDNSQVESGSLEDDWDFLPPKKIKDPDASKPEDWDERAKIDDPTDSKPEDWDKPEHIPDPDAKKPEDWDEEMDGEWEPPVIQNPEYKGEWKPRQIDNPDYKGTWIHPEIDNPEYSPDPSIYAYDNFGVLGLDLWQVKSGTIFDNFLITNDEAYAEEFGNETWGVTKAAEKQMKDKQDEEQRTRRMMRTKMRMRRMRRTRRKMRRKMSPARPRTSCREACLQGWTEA

B1: anti-mutCALR antibody clone 41 (antibody, human IgG1, lambda, V domains shown)
VH: EVQLVQSGAEVKKPGASVKVSCKVSGYTLTELSMHWVRQAPGKGLEWMGLVDPEDGETIYAQKFQGRVTMTEDTSTDTAYMELSSLRSEDTAVYYCAREEWSGDGDDAFDIWGQGTMVTVSS
VL: QSVLTQPPSVSAAPGQKVTISCSGSSSNIGSYSVSWYQQLPGTAPKLLIYDNNKRPSGIPDRFSGSNSGTSATLGITGLQTGDEADYYCGTWDSSLSAWVFGGGTKLTVLG
notes: human IgG1; group 4
Q: Does B1 bind (MBP protein)?
A: no binding (tested: 250 nM)

B2: anti-mutCALR antibody clone 40 (antibody, human IgG1, lambda, V domains shown)
VH: B1 VH with L32S
VL: B1 VL
notes: human IgG1; group 4
Q: Does B2 bind (MBP protein)?
A: no binding (tested: 250 nM)

B3: anti-mutCALR antibody clone 42 (antibody, human IgG1, lambda, V domains shown)
VH: B1 VH
VL: B1 VL with N52D, G75S
notes: human IgG1; group 4
Q: Does B3 bind (MBP protein)?
A: no binding (tested: 250 nM)

B4: anti-mutCALR antibody clone 23 (antibody, human IgG1, lambda, V domains shown)
VH: EVQLVQSGAEVKKPGASVKVSCKVSGYTLTELSMQWVRQAPGKGLEWMGGFDPDDGETMYAEKFQGRLTVTEDTSTDTVYMELRSLTSEDTALYFCATSPGYDFFDYWGQGTLVTVSS
VL: SYVLTQPPSVSVAPGQTARITCGGNNIGIKSVHWYQQKPGQAPVLVVYDDSDRPSGIPERFSGSNSGNTATLTINRVEAGDEADYYCQVWDSSNDLLIFGGGTKLTVLG
notes: human IgG1; group 1
Q: Does B4 bind (MBP protein)?
A: no binding (tested: 250 nM)

B5: anti-mutCALR antibody clone 11 (antibody, human IgG1, lambda, V domains shown)
VH: B4 VH with Q3R
VL: QSALTQPRSVSGSPGQSVTISCTGTSSDVGGYNYVSWYQQHPGKAPKLMIYDVSKRPSGVPDRFSGSNSGNTATLTINRVEAGDEADYYCQVWDSSNDLLIFGGGTKLTVLG
notes: human IgG1; group 1
Q: Does B5 bind (MBP protein)?
A: no binding (tested: 250 nM)

B6: anti-mutCALR antibody clone 24 (antibody, human IgG1, lambda, V domains shown)
VH: B4 VH with F64L
VL: B4 VL with Q16K, I29S
notes: human IgG1; group 1
Q: Does B6 bind (MBP protein)?
A: no binding (tested: 250 nM)

B7: anti-mutCALR antibody clone 30 (antibody, human IgG1, lambda, V domains shown)
VH: B4 VH
VL: B4 VL with Q16K, R19T, I29T
notes: human IgG1; group 1
Q: Does B7 bind (MBP protein)?
A: no binding (tested: 250 nM)

B8: anti-mutCALR antibody clone 28 (antibody, human IgG1, lambda, V domains shown)
VH: B4 VH
VL: B4 VL with V3E, I29S, N75S, S92A, S93D, N94S, L96Q
notes: human IgG1; group 1
Q: Does B8 bind (MBP protein)?
A: no binding (tested: 250 nM)

B9: anti-mutCALR antibody clone 29 (antibody, human IgG1, lambda, V domains shown)
VH: B4 VH
VL: B4 VL with Q16K, I29S, N75S, N94S, T103A
notes: human IgG1; group 1
Q: Does B9 bind (MBP protein)?
A: no binding (tested: 250 nM)

B10: anti-mutCALR antibody clone 25 (antibody, human IgG1, lambda, V domains shown)
VH: B4 VH
VL: B4 VL with V3E, S11A, I29R, S31A
notes: human IgG1; group 1
Q: Does B10 bind (MBP protein)?
A: no binding (tested: 250 nM)

B11: anti-mutCALR antibody clone 26 (antibody, human IgG1, lambda, V domains shown)
VH: B4 VH
VL: B4 VL with I29S, N75S, N94I, L96H, L105V
notes: human IgG1; group 1
Q: Does B11 bind (MBP protein)?
A: no binding (tested: 250 nM)

B12: anti-mutCALR antibody clone 27 (antibody, human IgG1, lambda, V domains shown)
VH: B4 VH
VL: B4 VL with S51R
notes: human IgG1; group 1
Q: Does B12 bind (MBP protein)?
A: no binding (tested: 250 nM)

B13: anti-mutCALR antibody clone 48 (antibody, human IgG1, lambda, V domains shown)
VH: EVQLVQSGAEVKKPGSSVKVSCKASGGTFSSYAISWVRQAPGQGLEWMGGIIPIFGTANYAQKFQGRVTITADESTSTAYMELSSLRSEDTAVYYCASSPLRGSGWYWHYYYGMDVWGQGTTVTVSS
VL: SYVLTQPPSVSVAPGKTARITCGGNNIGSKSVHWYQQKPGQAPVLVIYQDRKRPSGIPERFSGSNSGNTATLTISGTQAMDEADYYCQAWDSSTAVFGGGTKLTVLG
Q: Does B13 bind (MBP protein)?
A: no binding (tested: 250 nM)

B14: anti-mutCALR antibody clone 49 (antibody, human IgG1, lambda, V domains shown)
VH: B13 VH
VL: SYELTQPPSVSVAPGKTARITCGGNNIRAKHVHWYQQKPGQSPVLVIYQDSKRPSGIPERFSGSNSGSTATLTISRVEAGDEADYYCQVWDSSTVVFGGGTKLTVLG
Q: Does B14 bind (MBP protein)?
A: no binding (tested: 250 nM)

B15: anti-mutCALR antibody clone 47 (antibody, human IgG1, lambda, V domains shown)
VH: B13 VH
VL: B14 VL with N26K, R28G, A29T, H31S, S42A, Q49R, K52N, S68N, V77A, E78Q
Q: Does B15 bind (MBP protein)?
A: no binding (tested: 250 nM)

B16: anti-mutCALR antibody clone 45 (antibody, human IgG1, lambda, V domains shown)
VH: B13 VH
VL: SYVLTQPLSVSVAPGQTARITCGGNNIGRKSVHWYQQKPGQAPVLVIYRDSNRPSGIPERFSGSNSGNTATLTISRAQAGDEADYYCQVWDSSTVVFGGGTKLTVLG
Q: Does B16 bind (MBP protein)?
A: no binding (tested: 250 nM)

B17: anti-mutCALR antibody clone 50 (antibody, human IgG1, lambda, V domains shown)
VH: B13 VH with E1Q, V2M
VL: B13 VL with S29T, A42S, A89V, A95E
Q: Does B17 bind (MBP protein)?
A: no binding (tested: 250 nM)

B18: anti-mutCALR antibody clone 46 (antibody, human IgG1, lambda, V domains shown)
VH: B13 VH with E1Q
VL: B13 VL with V3E, G28R, I47V, R51S, A89V
Q: Does B18 bind (MBP protein)?
A: no binding (tested: 250 nM)

B19: anti-mutCALR antibody clone 51 (antibody, human IgG1, lambda, V domains shown)
VH: B13 VH
VL: B13 VL with V3E, N26K, S29T, R51S, D91G, A95V
Q: Does B19 bind (MBP protein)?
A: no binding (tested: 250 nM)

B20: anti-mutCALR antibody clone 44 (antibody, human IgG1, lambda, V domains shown)
VH: B13 VH
VL: B13 VL with V12A, T21S, G28R, P39A, R51S, S93N, A95V
Q: Does B20 bind (MBP protein)?
A: no binding (tested: 250 nM)

B21: anti-mutCALR antibody clone 43 (antibody, human IgG1, lambda, V domains shown)
VH: B13 VH with S16A
VL: not shown
Q: Does B21 bind (MBP protein)?
A: no binding (tested: 250 nM)

B22: anti-mutCALR antibody clone 52 (antibody, human IgG1, kappa, V domains shown)
VH: EVQLVQSGAEVKKPGASVKVSCKVSGYTLTELSMHWVRQAPGKGLEWMGLVDPEDGETIYAEKFQGRVTITADTSTDTAYMELSSPRSEDTAVYYCATTIGDDYFDYWGQGTLVTVSS
VL: not shown
Q: Does B22 bind (MBP protein)?
A: no binding (tested: 250 nM)

B23: anti-mutCALR antibody clone 31 (antibody, human IgG1, lambda, V domains shown)
VH: QVQLVQSGAEVKKPGATVKISCKVSGYSFTDYFIHWVQQAPGKGLAWVGLVDPEDGETIYAEKFQGRVTITADTSTDTAYMELSSLRSEDTAVYYCATPGGILTDPDAFDIWGQGTMVTVSS
VL: QSALTQPASVSGSPGQSVTISCTGTSSDVGGYNYVSWYQHHPGKAPKLMIYDVNKRPSGVPDRFSGSKSGNTASLTISGLQAEDEADYYCSSYIPSSTRWVFGGGTKLTVLG
Q: How did the “IC50 of inhibition of cell proliferation (Ba/F3 cells with MPL and mutCALR Type 1)” value (Human Type 1 mutCALR) turn out when B23 was run?
A: 13 µg/mL

B24: anti-mutCALR antibody clone 33 (antibody, human IgG1, lambda, V domains shown)
VH: B23 VH
VL: B23 VL with A8R, T23A, S26G, Y34H
notes: human IgG1; group 2
Q: Does B24 bind (MBP protein)?
A: no binding (tested: 250 nM)

B25: anti-mutCALR antibody clone 34 (antibody, human IgG1, lambda, V domains shown)
VH: B23 VH
VL: QSALTQPASVSGSPGQSITISCTGTSSDVGGYNYVSWYQQHPGKAPKLMIYEVSNRPSGVSNRFSGSKSGNTASLTISGLQAEDEADYYCSSYTSSSTYVFGTGTKVTVLG
notes: human IgG1; group 2
Q: Does B25 bind (MBP protein)?
A: no binding (tested: 250 nM)

B26: anti-mutCALR antibody clone 38 (antibody, human IgG1, kappa, V domains shown)
VH: EVQPVQSGAEVKKPGSSVKVSCKASGGTFSSYAISWVRQAPGQGLEWMGLVDPEDGETIYAEKFRGRVTITADTSTDTAYMELSSLRSEDTAVYYCATEESYGPWGQGTLVTVSS
VL: DIQLTQSPSSLSASVGDRVTITCQASQDISNYLNWYQQKPGKAPKLLIYDASNLETGVPSRFSGSGSGTEFTLTISSLQPEDFATYYCQQLNSYPLTFGGGTKLEIKR
notes: human IgG1; group 3
Q: Does B26 bind (MBP protein)?
A: no binding (tested: 250 nM)

B27: anti-mutCALR antibody clone 39 (antibody, human IgG1, kappa, V domains shown)
VH: B26 VH with P4L, R65Q
VL: B26 VL with N34D
notes: human IgG1; group 3
Q: Does B27 bind (MBP protein)?
A: no binding (tested: 250 nM)

B28: anti-mutCALR antibody clone 53 (antibody, human IgG1, lambda, V domains shown)
VH: QVQLVQSGAEVKKPGASVKVSCKVSGYTLTELSMHWVRQAPGKGLEWMGGFDPEDGETIYAQKFQGRVTMTEDTSTDTAYMELSSLRSEDTAVYYCATDIQGLAEFDYWGQGTLVTVSS
VL: QSALTQPRSVSGSPGQSVTISCTGTNTDVGAYIDVSWYQQHPGKAPKLIIYDVSKWPSGVPDRFSGSKSGNTASLTISGLQAEDEADYYCCSYAGNHSFSFGGGTKVTVLG
notes: human IgG1; group 13
Q: Does B28 bind (MBP protein)?
A: no binding (tested: 250 nM)
